One may read the stoichiometry N as a count of units in the complex or per binding partner. Broadly, the Kd is the constant that tells how readily two partners part at equilibrium. The low end stands for a tighter complex, the high end for a looser complex.

The values that follow come from PMC7186176, “Structural basis of cell-surface signaling by a conserved sigma regulator in Gram-negative bacteria” (The Journal of Biological Chemistry, 2020).

B2: MBP-tagged PupR CCSSD (PupR residues 110–324) (domain or fragment, Pseudomonas capeferrum, UniProt Q52209 110-324, looked up)
chain: QDWRADYHSRIGEQRRLTLADGTQVQLNTDSALNVAFDQQARRLRLVRGEMLITRPALADSRPLWVDTEHGRLESTLAQFNVRLHGQHTQATVYQGSVALQPALHAYPPILLGAGEQASFNQQGLLARQAVAAVAPAWSQGMLVAQGQPLAAFIEDLARYRRGHLACDPALAGLRVSGTFPLENTDKIIAAVAETLQLEVQHFTRYWVTLKPRMA
notes: PupR, inner membrane sigma regulator of Pseudomonas capeferrum (formerly Pseudomonas putida WCS358), periplasmic CCSSD, residues 110-324; also called complete CCSSD; C-terminal cell-surface signaling domain; source: E. coli BL21(DE3)pLysS, co-expressed with GST-PupB NTSD, clarified lysate (pull-down); not shown: MBP, N-terminal, kept
B3: PupB NTSD (purified) (domain or fragment, Pseudomonas capeferrum, UniProt P38047 49-128, looked up)
chain: AQADFDIPAGPLAPALAHFGQSAHILLSYPTALTEGRSTSGLAGRFDIDQGLAILLAGTGLEASRGANASYSLQASASTG
notes: PupB, outer membrane TonB-dependent transducer of Pseudomonas capeferrum (formerly Pseudomonas putida WCS358), N-terminal signaling domain; also called N-terminal signaling domain of PupB

What all share (conditions): both partners purified
In assay [1] the target is B3. Briefly: SEC-SAXS; inline Superdex 200 Increase 10/300; 25 mM HEPES pH 7.5, 400 mM LiCl, 10% glycerol; 800 μM complex (1:1 mix, 30 min at room temperature) or 400 μM PupR CCSSD alone injected; ambient temperature.
Assay [2] has as its target B3. Put plainly: ITC; MBP-tagged PupR CCSSD (220-235 μM) titrated into PupB NTSD (27.5-40 μM); 15 °C; 25 mM HEPES pH 7.5, 400 mM LiCl, 10% glycerol; global fit of three runs in SEDPHAT with a local incompetent fraction. (In general: ITC needs no label: the signal is the heat of the interaction.)
The target in assay [3] is B3. The assay is described as above. The source holds these as a separate data set.
For assay [4], the target named is B2. The description is as above.

B1: PupR CCSSD (PupR residues 110–324, MBP cleaved) (domain or fragment, Pseudomonas capeferrum)
chain: GAMGQDWRADYHSRIGEQRRLTLADGTQVQLNTDSALNVAFDQQARRLRLVRGEMLITRPALADSRPLWVDTEHGRLESTLAQFNVRLHGQHTQATVYQGSVALQPALHAYPPILLGAGEQASFNQQGLLARQAVAAVAPAWSQGMLVAQGQPLAAFIEDLARYRRGHLACDPALAGLRVSGTFPLENTDKIIAAVAETLQLEVQHFTRYWVTLKPRMA
notes: 4-residue cloning artifact left after TEV cleavage; PupR, inner membrane sigma regulator of Pseudomonas capeferrum (formerly Pseudomonas putida WCS358), periplasmic CCSSD, residues 110-324; 219-residue product with the GAMG artifact; About 90% pure, some MBP contamination; also called native PupR CCSSD; not shown: MBP, N-terminal, cleaved
In the case of B1, the “stoichiometry N” value with PupB NTSD (purified) [1] is 1.

For B2, in the assay with PupB NTSD (purified) [2], the “stoichiometry N” value is 1. The dH with PupB NTSD (purified) [3] was -17.7 kcal/mol.

Take B3: the equilibrium dissociation constant (Kd) in assay [4] was determined as 690 nM.
